Reference: paper PMC5004290, “Mapping an epitope in EBNA‐1 that is recognized by monoclonal antibodies to EBNA‐1 that cross‐react with dsDNA” (Immunity, Inflammation and Disease, 2016)
No end group written: not given here. *: point of attachment. Biotin = O=C1N[C@H]2[C@H](CS[C@H]2CCCCC(=O)*)N1

T1: Peptide GL-15 of EBNA-1 (aa 552-566) (Epstein-Barr virus (strain B95-8) …)
T1 construct: EBNA-1 of Epstein Barr virus, aa 552-566; it is surmised from the streptavidin format of the peptide ELISA; source: synthetic peptide
T1 chain: GPLRESIVCYFMVFL


What was measured:
[1] = target: T1, Peptide GL-15 of EBNA-1 (aa 552-566); assay: ELISA; anti-peptide ELISA; biotinylated peptide (100 μg/ml), or mole equivalents of biotinylated PFM-15 and biotinylated EBNA-1, on streptavidin coated plates; 3D4 at 5 μg/ml in PBS, 0.1% BSA, 1 h at 37°C; settings: both partners purified
[2] = target: IgM monoclonal antibody 16D2 to EBNA-1 (mouse); assay: ELISA; peptide inhibition ELISA; 16D2 (5 μg/ml) incubated with 0.1 μg/ml to 1 mg/ml of peptide, then transferred to EBNA-1 coated plates, 1 h at 37°C
[3] = target: IgM monoclonal antibody 16D2 to EBNA-1 (mouse); assay: ELISA; peptide inhibition ELISA; 16D2 (5 μg/ml) pre-incubated 1 h at 37°C with 0.1 to 100 μg/ml of peptide, then transferred to dsDNA coated plates, 2 h at 37°C

Sequence of IgM monoclonal antibody 16D2 to EBNA-1 (mouse) (heavy, as listed by the source): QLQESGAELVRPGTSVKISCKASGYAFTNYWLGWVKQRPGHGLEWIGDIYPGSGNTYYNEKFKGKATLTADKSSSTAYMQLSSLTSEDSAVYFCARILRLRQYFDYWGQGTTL

Binder	binding result [1]	percent inhibition of binding to EBNA-1 at 100 μg/ml of peptide [2]	percent inhibition of binding to dsDNA at 100 μg/ml of peptide [3]
IgG monoclonal antibody 3D4 to EBNA-1 (antibody, V domains shown, gamma heavy chain, germline VH7183.14, JH2, 3 mutations; kappa light chain, germline bb1, JK1, 5 mutations; Mouse IgG1 kappa; also called MAb 3D4; source: hybridoma from an EBNA-1 injected mouse; IgG MAbs purified on protein G sepharose columns) VH: LQESGGGLVKPGGSLKLSCAASGFAFSSYDMSWVRQTPEKRLEWVATISSGGSYIYYPDSVKGRFTISRDNARNTLYLQMSSLRSEDTALYYCARPPPFYFDYWGQGTTLTVSS VL: TQSPLSLPVSLGEQASISCRSSQSLVHSNGNTYLHWYLQKPGQSPKLLIYKVSNRFSGVPDRFSGSGSGTDFTLKISRLEAEDLGFYFCSQTTHVPWTFGGGTK	binds	–	–
Biotin-PQPGPLRESIVCYFM [Peptide PFM-15 of EBNA-1 (aa 549-563)]	–	70%	60%
